Measurements: article PMC3079881 (Developmental cell, 2011)

Molecular target: the molecule itself
Assay: negative-stain electron microscopy of purified complexes

B1: Cdc11 (natural protein, S. cerevisiae, UniProt P32458 1-415, looked up)
chain: MSGIIDASSALRKRKHLKRGITFTVMIVGQSGSGRSTFINTLCGQQVVDTSTTILLPTDTSTEIDLQLREETVELEDDEGVKIQLNIIDTPGFGDSLDNSPSFEIISDYIRHQYDEILLEESRVRRNPRFKDGRVHCCLYLINPTGHGLKEIDVEFIRQLGSLVNIIPVISKSDSLTRDELKLNKKLIMEDIDRWNLPIYNFPFDEDEISDEDYETNMYLRTLLPFAIIGSNEVYEMGGDVGTIRGRKYPWGILDVEDSSISDFVILRNALLISHLHDLKNYTHEILYERYRTEALSGESVAAESIRPNLTKLNGSSSSSTTTRRNTNPFKQSNNINNDVLNPASDMHGQSTGENNETYMTREEQIRLEEERLKAFEERVQQELLLKRQELLQREKELREIEARLEKEAKIKQEE
binding result: binds
